Experimental data from patent US20250223614A1.

What was measured:
[1] = target: Cfa C-intein fused to the N-terminus of the C-terminal fragment of adenosine base editor ABE8.5 (starting at Cas9 position 310); assay: cell-based or functional assay
[2] = target: Gp41.1 C-intein fused to the N-terminus of the C-terminal fragment of adenosine base editor ABE8.5 (starting at Cas9 position 310); assay: cell-based or functional assay

An A7G Edit % (Exp. 1); average (N = 4) percent A > G conversion [1] of 48.2%, an A7G Edit % (Exp. 2); average (N = 4) percent A > G conversion [1] of 74.7% and an A7G Edit; average percent A > G conversion measured in Exps. 1-3 [1] of 64.3% were found for “N-terminal fragment of adenosine base editor ABE8.5 (ending at Cas9 position 309) fused at its C-terminus to Cfa N-intein” in this work. For the same substance, the A7G Edit; percent A > G conversion (Exp. 3) [1] was 70%.
An A7G Edit % (Exp. 1); average (N = 4) percent A > G conversion [2] of 54.9%, an A7G Edit % (Exp. 2); average (N = 4) percent A > G conversion [2] of 72.5% and an A7G Edit; average percent A > G conversion (2 experiments only) [2] of 63.7% were found for “N-terminal fragment of adenosine base editor ABE8.5 (ending at Cas9 position 309) fused at its C-terminus to the Gp41.1-SC N-intein” in this work.
